The record followed here is publication PMC5892938, “SARNAclust: Semi-automatic detection of RNA protein binding motifs from immunoprecipitation data”.

B1: consensus (structured_RNA)
RNA: GGUCACGUCUCAAUCAACUCCCAAAGGUUUUUUUCAAAACCACCCAUCAACAGCUCGCAGUCAAG
B2: consensus (structured_RNA)
RNA: B1 RNA with U30C, C35U, A37G, A38G
B3: consensus (structured_RNA)
RNA: B1 RNA with U30C, C35A, A37G, A38G, A39G
B4: consensus (structured_RNA)
RNA: B1 RNA with U30C, A37G, A39G
B5: consensus (structured_RNA)
RNA: B1 RNA with U29C, U30C, C35G, A37G, A38G, A39G
B6: consensus (structured_RNA)
RNA: B1 RNA with U30C, U33C, C35A, A37G, A38G
B7: consensus (structured_RNA)
RNA: B1 RNA with U30C, U33C, C35A, A37G
B8: consensus (structured_RNA)
RNA: B1 RNA with U29C, U30C, C35U, A37G, A38G, A39G
B9: consensus (structured_RNA)
RNA: B1 RNA with U30C, A37G, A38G, A39G
B10: consensus (structured_RNA)
RNA: B1 RNA with U30C, U33C, C35A, A37G, A38G, A39G
B11: consensus (structured_RNA)
RNA: B1 RNA with U29C, U33C, C35U, A38G, A39G
B12: consensus (structured_RNA)
RNA: B1 RNA with U30C, C35U, A37G
B13: consensus (structured_RNA)
RNA: B1 RNA with U28C, U30C, U33C, A37G, A38G, A39G
B14: consensus (structured_RNA)
RNA: B1 RNA with U30C, U33C, A37G, A39G
B15: consensus (structured_RNA)
RNA: B1 RNA with U28C, U30C, U33C, C35U, A37G, A38G, A39G
B16: consensus (structured_RNA)
RNA: B1 RNA with U28C, U33C, C35G, A39G
B17: consensus (structured_RNA)
RNA: B1 RNA with U29C, U33C, C35G, A38G
B18: consensus (structured_RNA)
RNA: B1 RNA with U30C, C35A, A37G, A39G
B19: consensus (structured_RNA)
RNA: B1 RNA with U30C, A37G, A38G
B20: consensus (structured_RNA)
RNA: B1 RNA with U29C, U33C, A38G, A39G
B21: consensus (structured_RNA)
RNA: B1 RNA with U28C, C35G, A39G
B22: consensus (structured_RNA)
RNA: B1 RNA with U30C, C35A, A37G, A38G
B23: consensus (structured_RNA)
RNA: B1 RNA with U28C, C35U, A39G
B24: consensus (structured_RNA)
RNA: B1 RNA with U29C, U30C, U33C, C35G, A37G, A38G
B25: consensus (structured_RNA)
RNA: B1 RNA with U33C
B26: consensus (structured_RNA)
RNA: B1 RNA with U28C, U33C, C35U, A39G
B27: consensus (structured_RNA)
RNA: B1 RNA with U28C, U29C, U30C, U33C, A37G, A38G, A39G
B28: consensus (structured_RNA)
RNA: B1 RNA with U30C, U33C, C35U, A37G
B29: consensus (structured_RNA)
RNA: B1 RNA with U28C, C35U, A38G, A39G
B30: consensus (structured_RNA)
RNA: B1 RNA with U28C, U30C, C35G, A37G, A39G
B31: consensus (structured_RNA)
RNA: B1 RNA with A39G
B32: consensus (structured_RNA)
RNA: B1 RNA with U28C, U29C, U30C, U33C, C35A, A37G, A38G, A39G
B33: consensus (structured_RNA)
RNA: B1 RNA with U28C, U33C, A38G, A39G
B34: consensus (structured_RNA)
RNA: B1 RNA with U29C, U30C, U33C, C35U, A37G, A38G, A39G
B35: consensus (structured_RNA)
RNA: B1 RNA with C35A, A39G
B36: consensus (structured_RNA)
RNA: B1 RNA with U28C, U29C, C35A, A38G, A39G
B37: consensus (structured_RNA)
RNA: B1 RNA with U28C, U30C, U33C, C35G, A37G, A39G
B38: consensus (structured_RNA)
RNA: B1 RNA with U33C, C35U
B39: consensus (structured_RNA)
RNA: B1 RNA with U28C, U33C, C35A, A38G, A39G
B40: consensus (structured_RNA)
RNA: B1 RNA with U30C, U33C, C35A, A37G, A39G
B41: consensus (structured_RNA)
RNA: B1 RNA with U30C, U33C, A37G
B42: consensus (structured_RNA)
RNA: B1 RNA with C35A
B43: consensus (structured_RNA)
RNA: B1 RNA with U29C, C35U, A38G, A39G
B44: consensus (structured_RNA)
RNA: B1 RNA with U28C, U33C, C35U, A38G, A39G
B45: consensus (structured_RNA)
RNA: B1 RNA with U30C, U33C, A37G, A38G
B46: consensus (structured_RNA)
RNA: B1 RNA with C35U
B47: consensus (structured_RNA)
RNA: B1 RNA with U33C, C35A, A39G
B48: consensus (structured_RNA)
RNA: B1 RNA with U28C, U30C, C35U, A37G, A38G, A39G
B49: consensus (structured_RNA)
RNA: B1 RNA with U29C, A38G
B50: consensus (structured_RNA)
RNA: B1 RNA with U30C, C35U, A37G, A39G
B51: Consensus Loop Only A (CLA) (structured_RNA)
RNA: GGUCACGUCUCAAUCAACUCAUCCCCAGGAGUUUACUCCUGUUUAGUCAACAGCUCGCAGUCAAG

Substitutions are numbered along the chain they refer to.

One series deals with T1, GST-SBP-SLBP (stem-loop binding protein) (Homo sapiens, UniProt Q14493 1-270). The experiment in a line: targeted RNA Bind-n-Seq; RBNS binding buffer: 25 mM Tris pH 7.5, 150 mM KCl, 3 mM MgCl2, 0.1% Tween, 0.5 mg/mL BSA, 1 mM DTT; 27 nM protein, 750 pM RNA pool; temperature not stated; high values mean tight binding. Conditions: protein: recombinant; tags: N-terminal GST and SBP (pGEX6P1-SBP). The procedure, abridged: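 Read counts per sequence supply the binding signal, defined as the DEseq fold change on a binary-logarithm scale. These counts came from RNA of a designed, T7-transcribed oligo pool at 750 pM that bound 27 nM of GST-SBP-tagged protein, made in Rosetta(DE3) pLysS E. coli and glutathione-purified, in RBNS binding buffer. The bound RNA was reverse transcribed with a 10-nucleotide barcoded primer, PCR-amplified and sequenced on a MiSeq with 200-cycle paired-end reads, then processed with FLASH and HISAT2 and collapsed by barcode.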
As to B1, the binding signal was 3.04 ± 0.195 log2 fold change.
The same measure, in the same setting: as for B2, the figure is 2.58 ± 0.123 log2 fold change.
Same read-out and setting: as for B3, the figure is 2.44 ± 0.142 log2 fold change; as for B4, 2.98 ± 0.121 log2 fold change.
Consider B5, for which the binding signal worked out at 2.63 ± 0.152 log2 fold change.
Still for that read-out and setting: as for B6, the figure is 2.79 ± 0.124 log2 fold change; as for B7, 3.04 ± 0.122 log2 fold change; as for B8, 2.9 ± 0.135 log2 fold change.
Same read-out and setting: as for B9, the figure is 2.49 ± 0.153 log2 fold change; as for B10, 2.42 ± 0.134 log2 fold change.
Regarding B11, the binding signal is 2.73 ± 0.134 log2 fold change.
As to B12, the binding signal came out at 2.84 ± 0.113 log2 fold change.
The same measure, in the same setting: with B13 the figure was 3.04 ± 0.124 log2 fold change; with B14, 2.76 ± 0.132 log2 fold change.
On the same count and under the same terms, as for B15, the figure is 2.44 ± 0.146 log2 fold change; as for B16, 2.53 ± 0.134 log2 fold change.
As to B17, the binding signal was 2.75 ± 0.139 log2 fold change.
Still for that read-out and setting: as for B18, the figure is 2.97 ± 0.121 log2 fold change; as for B19, 3 ± 0.116 log2 fold change.
Still for that read-out and setting: with B20 the figure was 2.87 ± 0.126 log2 fold change; with B21, 2.83 ± 0.141 log2 fold change.
Still for that read-out and setting: with B22 the figure was 2.99 ± 0.127 log2 fold change; with B23, 2.93 ± 0.199 log2 fold change.
For the molecule B24, the binding signal was 2.83 ± 0.137 log2 fold change.
Same read-out and setting: as for B25, the figure is 2.81 ± 0.12 log2 fold change.
Still for that read-out and setting: with B26 the figure was 3 ± 0.122 log2 fold change.
Same read-out and setting: as for B27, the figure is 3.69 ± 0.158 log2 fold change; as for B28, 2.63 ± 0.139 log2 fold change; as for B29, 2.7 ± 0.125 log2 fold change.
For the molecule B30, the binding signal amounted to 2.84 ± 0.154 log2 fold change.
Same read-out and setting: as for B31, the figure is 2.7 ± 0.146 log2 fold change; as for B32, 3.65 ± 0.165 log2 fold change.
On the same count and under the same terms, as for B33, the figure is 2.96 ± 0.136 log2 fold change; as for B34, 2.76 ± 0.147 log2 fold change; as for B35, 2.53 ± 0.247 log2 fold change.
On the same count and under the same terms, as for B36, the figure is 3.68 ± 0.122 log2 fold change.
For B37, the binding signal is 2.5 ± 0.154 log2 fold change.
Still for that read-out and setting: as for B38, the figure is 2.59 ± 0.138 log2 fold change; as for B39, 2.99 ± 0.126 log2 fold change.
Same read-out and setting: as for B40, the figure is 2.77 ± 0.139 log2 fold change.
On the same count and under the same terms, as for B41, the figure is 3.02 ± 0.121 log2 fold change; as for B42, 2.88 ± 0.264 log2 fold change; as for B43, 2.89 ± 0.126 log2 fold change.
For the molecule B44, the binding signal turned out to be 2.45 ± 0.137 log2 fold change.
Still for that read-out and setting: as for B45, the figure is 2.79 ± 0.125 log2 fold change; as for B46, 2.51 ± 0.271 log2 fold change.
The same measure, in the same setting: with B47 the figure was 2.61 ± 0.133 log2 fold change; with B48, 2.74 ± 0.145 log2 fold change.
B49: the binding signal was 3.61 ± 0.112 log2 fold change.
Same read-out and setting: with B50 the figure was 2.54 ± 0.128 log2 fold change.

In the next series the target is T1, GST-SBP-SLBP (stem-loop binding protein). The experiment in a line: EMSA; 320 nM protein, 1 nM RNA, 1 mM Mg2+; EMSA: 10 mM HEPES pH 7.3, 20 mM KCl, 1 mM MgCl2, 20 mM DTT, 5% glycerol, 30 min, 4°C. RBNS: 25 mM Tris pH 7.5, 150 mM KCl, 0.1% Tween, 0.5 mg/mL BSA, 3 mM MgCl2, 1 mM DTT. The conditions noted are these: protein: recombinant; tags: N-terminal GST and SBP (pGEX6P1-SBP); label: 3' biotin; hairpin.
Consider B51, for which the binding result is listed as “no binding”.
